Assays:
[1] = target: T1, MYH9 (human, UniProt P35579 2-1960); assay: Flag IP of Flag-SHARPIN from WM115 lysate, on-bead tryptic digestion, LC/MS-MS
T1 construct: endogenous protein co-purified from WM115 lysate
Description: (§1) To identify SHARPIN-interacting proteins, WM115 cells were transfected with Flag-tagged SHARPIN or control empty plasmid. Cell lysates were prepared using 1% Triton X-100 buffer [50 mM Tris-HCl, pH7.4, 1% (v/v) Triton X-100, 150 mM NaCl, 1 mM EDTA, and protease and phosphatase inhibitor cocktails (Thermo Fisher Scientific)]. Lysates were pre-cleared with protein A/G beads (Santa Cruz Biotechnology) for 1 h at 4° C. followed by immunoprecipitation using FLAG-M2-agarose beads (Sigma-Aldrich) overnight at 4° C. Beads were then washed with lysis buffer and TBS containing lx protease inhibitor cocktail before being subjected to on-bead tryptic digestion followed by mass spectrometry. In Vitro Methylation Assay.

[2] = target: T2, PRPF31 (human, UniProt Q8WWY3 1-499); assay: as above
T2 sequence (looked up): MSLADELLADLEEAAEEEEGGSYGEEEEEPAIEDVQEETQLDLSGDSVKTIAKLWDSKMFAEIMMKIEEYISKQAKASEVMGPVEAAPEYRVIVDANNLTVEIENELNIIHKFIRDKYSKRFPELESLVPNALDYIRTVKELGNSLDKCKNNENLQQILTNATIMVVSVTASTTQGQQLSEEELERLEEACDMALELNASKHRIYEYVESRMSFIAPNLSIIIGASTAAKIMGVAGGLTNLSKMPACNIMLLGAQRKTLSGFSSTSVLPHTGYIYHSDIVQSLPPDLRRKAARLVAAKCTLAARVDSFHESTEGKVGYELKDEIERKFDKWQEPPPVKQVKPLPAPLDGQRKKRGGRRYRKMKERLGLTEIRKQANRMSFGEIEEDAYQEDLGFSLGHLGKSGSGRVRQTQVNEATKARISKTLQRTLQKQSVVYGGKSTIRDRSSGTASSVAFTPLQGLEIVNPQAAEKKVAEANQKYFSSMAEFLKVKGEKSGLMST
Description: as §1

[3] = target: T3, P4HB (human, UniProt P07237 18-508); assay: as above
T3 construct: endogenous protein co-purified from WM115 lysate
Description: as §1

[4] = target: T4, HSPA5 (human, UniProt P11021 19-654); assay: as above
T4 construct: endogenous protein co-purified from WM115 lysate
Description: as §1

[5] = target: T5, MYH10 (human, UniProt P35580 1-1976, limits assumed); assay: as above
T5 construct: endogenous protein co-purified from WM115 lysate
Description: as §1

[6] = target: T6, PMEL (human, UniProt P40967 25-661, limits assumed); assay: as above
T6 construct: endogenous protein co-purified from WM115 lysate
T6 sequence (looked up): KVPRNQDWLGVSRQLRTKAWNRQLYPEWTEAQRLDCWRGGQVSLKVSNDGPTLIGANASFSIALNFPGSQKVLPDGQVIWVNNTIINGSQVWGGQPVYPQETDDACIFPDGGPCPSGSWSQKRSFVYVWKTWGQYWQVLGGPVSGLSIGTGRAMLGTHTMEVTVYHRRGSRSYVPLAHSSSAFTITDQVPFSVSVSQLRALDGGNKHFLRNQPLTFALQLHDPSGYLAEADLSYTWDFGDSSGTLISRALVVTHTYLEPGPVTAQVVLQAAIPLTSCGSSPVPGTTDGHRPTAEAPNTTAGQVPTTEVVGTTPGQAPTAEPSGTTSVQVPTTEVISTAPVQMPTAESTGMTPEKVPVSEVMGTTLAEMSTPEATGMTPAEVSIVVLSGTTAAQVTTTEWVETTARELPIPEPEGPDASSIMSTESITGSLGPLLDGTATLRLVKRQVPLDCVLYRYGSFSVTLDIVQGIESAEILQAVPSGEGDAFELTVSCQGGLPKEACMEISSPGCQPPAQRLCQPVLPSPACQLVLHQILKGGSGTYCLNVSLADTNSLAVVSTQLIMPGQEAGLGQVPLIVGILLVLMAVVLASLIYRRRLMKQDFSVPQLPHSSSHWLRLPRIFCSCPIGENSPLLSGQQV
Description: as §1

[7] = target: T7, RBM10 (human, UniProt P98175 1-930, limits assumed); assay: as above
T7 construct: endogenous protein co-purified from WM115 lysate
Description: as §1

[8] = target: T8, XRCC6 (human, UniProt P12956 2-609); assay: as above
T8 construct: endogenous protein co-purified from WM115 lysate
Description: as §1

[9] = target: T9, PARP1 (human, UniProt P09874 2-1014); assay: as above
T9 construct: endogenous protein co-purified from WM115 lysate
Description: as §1

[10] = target: T10, PFKFB2 (human, UniProt O60825 2-505, limits assumed); assay: as above
T10 construct: endogenous protein co-purified from WM115 lysate
Description: as §1

[11] = target: T11, Interferon-activable protein 204 (Mus musculus) (IFI204) (Mus musculus, UniProt P0DOV2 1-619); assay: Flag IP and immunoblot of transfected HEK293T lysates
T11 construct: also called IF204
T11 sequence: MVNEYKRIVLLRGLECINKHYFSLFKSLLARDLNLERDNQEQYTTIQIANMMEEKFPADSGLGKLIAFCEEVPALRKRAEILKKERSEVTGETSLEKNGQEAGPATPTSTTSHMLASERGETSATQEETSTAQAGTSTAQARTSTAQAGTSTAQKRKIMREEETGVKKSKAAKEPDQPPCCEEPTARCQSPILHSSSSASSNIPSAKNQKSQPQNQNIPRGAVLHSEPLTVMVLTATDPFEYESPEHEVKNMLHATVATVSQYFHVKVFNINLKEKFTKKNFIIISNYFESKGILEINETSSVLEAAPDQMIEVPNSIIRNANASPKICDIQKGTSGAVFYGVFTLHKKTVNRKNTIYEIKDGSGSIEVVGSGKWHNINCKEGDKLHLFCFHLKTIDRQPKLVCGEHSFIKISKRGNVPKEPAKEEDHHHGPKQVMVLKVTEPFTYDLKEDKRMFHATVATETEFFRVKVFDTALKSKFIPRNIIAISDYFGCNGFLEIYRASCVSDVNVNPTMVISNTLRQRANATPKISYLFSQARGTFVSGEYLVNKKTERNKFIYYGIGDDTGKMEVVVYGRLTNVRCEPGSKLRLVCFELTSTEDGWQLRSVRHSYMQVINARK

Measured: binding result

T7 sequence (P98175 whole entry): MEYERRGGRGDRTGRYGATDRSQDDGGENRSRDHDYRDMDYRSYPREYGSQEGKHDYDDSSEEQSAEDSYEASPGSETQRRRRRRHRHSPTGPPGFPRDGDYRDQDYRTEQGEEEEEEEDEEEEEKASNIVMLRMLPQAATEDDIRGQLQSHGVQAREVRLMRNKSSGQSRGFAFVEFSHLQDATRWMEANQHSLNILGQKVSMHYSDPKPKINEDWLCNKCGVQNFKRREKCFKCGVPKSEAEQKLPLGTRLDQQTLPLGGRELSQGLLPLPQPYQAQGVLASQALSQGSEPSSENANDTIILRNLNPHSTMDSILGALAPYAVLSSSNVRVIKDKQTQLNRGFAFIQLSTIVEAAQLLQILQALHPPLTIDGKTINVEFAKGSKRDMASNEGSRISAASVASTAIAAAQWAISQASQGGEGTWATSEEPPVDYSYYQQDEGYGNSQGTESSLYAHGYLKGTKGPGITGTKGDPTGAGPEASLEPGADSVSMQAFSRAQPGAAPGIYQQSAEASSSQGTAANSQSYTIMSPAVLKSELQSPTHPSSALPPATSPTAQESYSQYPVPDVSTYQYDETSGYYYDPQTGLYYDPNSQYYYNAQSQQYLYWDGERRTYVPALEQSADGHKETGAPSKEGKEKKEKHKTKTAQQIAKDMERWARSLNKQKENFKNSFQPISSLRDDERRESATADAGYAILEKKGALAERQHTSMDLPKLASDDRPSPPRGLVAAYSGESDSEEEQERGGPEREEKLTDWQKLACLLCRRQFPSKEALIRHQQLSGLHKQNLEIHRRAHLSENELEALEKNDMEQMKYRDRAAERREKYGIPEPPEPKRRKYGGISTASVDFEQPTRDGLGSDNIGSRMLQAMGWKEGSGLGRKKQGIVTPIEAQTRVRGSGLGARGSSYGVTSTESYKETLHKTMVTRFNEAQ
T5 sequence (P35580 whole entry): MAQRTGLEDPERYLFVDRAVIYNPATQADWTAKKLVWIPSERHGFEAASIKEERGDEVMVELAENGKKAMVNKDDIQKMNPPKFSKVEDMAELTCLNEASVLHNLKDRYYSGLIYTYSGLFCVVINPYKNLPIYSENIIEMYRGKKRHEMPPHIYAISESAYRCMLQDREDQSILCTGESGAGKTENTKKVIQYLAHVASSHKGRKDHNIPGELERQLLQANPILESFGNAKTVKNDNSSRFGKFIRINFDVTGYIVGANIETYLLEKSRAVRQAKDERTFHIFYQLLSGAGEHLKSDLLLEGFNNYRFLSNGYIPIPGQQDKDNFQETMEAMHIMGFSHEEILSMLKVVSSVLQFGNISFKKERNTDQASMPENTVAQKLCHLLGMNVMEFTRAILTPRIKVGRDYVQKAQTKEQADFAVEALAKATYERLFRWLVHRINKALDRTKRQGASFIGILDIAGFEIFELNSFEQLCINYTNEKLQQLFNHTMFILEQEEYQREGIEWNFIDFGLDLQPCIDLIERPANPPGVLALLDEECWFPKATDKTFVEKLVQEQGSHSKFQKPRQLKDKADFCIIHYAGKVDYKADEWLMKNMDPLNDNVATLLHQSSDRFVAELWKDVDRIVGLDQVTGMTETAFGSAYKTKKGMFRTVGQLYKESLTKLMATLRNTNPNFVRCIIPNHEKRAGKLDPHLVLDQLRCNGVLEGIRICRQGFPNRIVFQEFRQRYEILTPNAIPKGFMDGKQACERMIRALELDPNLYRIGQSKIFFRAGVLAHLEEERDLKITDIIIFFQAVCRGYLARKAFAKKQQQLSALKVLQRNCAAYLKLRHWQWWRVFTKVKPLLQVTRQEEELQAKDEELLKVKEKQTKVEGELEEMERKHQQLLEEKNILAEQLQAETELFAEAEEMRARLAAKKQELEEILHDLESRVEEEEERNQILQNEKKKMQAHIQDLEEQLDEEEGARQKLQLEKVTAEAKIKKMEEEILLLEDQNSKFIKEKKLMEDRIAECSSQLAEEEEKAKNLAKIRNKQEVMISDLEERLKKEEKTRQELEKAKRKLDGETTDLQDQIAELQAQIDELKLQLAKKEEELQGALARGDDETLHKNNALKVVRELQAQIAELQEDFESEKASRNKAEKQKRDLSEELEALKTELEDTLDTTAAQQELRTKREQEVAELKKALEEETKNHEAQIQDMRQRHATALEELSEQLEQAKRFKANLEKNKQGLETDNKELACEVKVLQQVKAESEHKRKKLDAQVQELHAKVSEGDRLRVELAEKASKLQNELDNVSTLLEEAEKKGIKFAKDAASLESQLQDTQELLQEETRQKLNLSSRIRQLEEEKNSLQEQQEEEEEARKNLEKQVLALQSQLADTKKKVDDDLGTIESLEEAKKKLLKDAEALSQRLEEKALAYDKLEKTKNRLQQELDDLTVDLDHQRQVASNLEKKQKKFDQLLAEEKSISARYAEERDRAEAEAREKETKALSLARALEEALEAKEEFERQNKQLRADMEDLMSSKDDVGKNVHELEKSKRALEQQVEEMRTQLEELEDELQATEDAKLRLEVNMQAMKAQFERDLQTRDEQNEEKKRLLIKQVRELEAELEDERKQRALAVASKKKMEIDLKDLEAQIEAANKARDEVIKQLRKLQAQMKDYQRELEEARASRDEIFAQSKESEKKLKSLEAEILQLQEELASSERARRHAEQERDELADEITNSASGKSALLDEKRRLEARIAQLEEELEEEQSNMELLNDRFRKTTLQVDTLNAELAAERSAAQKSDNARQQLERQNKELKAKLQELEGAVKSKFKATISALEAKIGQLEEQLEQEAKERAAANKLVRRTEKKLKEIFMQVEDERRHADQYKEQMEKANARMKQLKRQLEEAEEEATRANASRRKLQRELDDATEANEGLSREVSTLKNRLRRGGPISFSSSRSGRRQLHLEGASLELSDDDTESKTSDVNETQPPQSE
T9 sequence (P09874 2-1014 limits assumed): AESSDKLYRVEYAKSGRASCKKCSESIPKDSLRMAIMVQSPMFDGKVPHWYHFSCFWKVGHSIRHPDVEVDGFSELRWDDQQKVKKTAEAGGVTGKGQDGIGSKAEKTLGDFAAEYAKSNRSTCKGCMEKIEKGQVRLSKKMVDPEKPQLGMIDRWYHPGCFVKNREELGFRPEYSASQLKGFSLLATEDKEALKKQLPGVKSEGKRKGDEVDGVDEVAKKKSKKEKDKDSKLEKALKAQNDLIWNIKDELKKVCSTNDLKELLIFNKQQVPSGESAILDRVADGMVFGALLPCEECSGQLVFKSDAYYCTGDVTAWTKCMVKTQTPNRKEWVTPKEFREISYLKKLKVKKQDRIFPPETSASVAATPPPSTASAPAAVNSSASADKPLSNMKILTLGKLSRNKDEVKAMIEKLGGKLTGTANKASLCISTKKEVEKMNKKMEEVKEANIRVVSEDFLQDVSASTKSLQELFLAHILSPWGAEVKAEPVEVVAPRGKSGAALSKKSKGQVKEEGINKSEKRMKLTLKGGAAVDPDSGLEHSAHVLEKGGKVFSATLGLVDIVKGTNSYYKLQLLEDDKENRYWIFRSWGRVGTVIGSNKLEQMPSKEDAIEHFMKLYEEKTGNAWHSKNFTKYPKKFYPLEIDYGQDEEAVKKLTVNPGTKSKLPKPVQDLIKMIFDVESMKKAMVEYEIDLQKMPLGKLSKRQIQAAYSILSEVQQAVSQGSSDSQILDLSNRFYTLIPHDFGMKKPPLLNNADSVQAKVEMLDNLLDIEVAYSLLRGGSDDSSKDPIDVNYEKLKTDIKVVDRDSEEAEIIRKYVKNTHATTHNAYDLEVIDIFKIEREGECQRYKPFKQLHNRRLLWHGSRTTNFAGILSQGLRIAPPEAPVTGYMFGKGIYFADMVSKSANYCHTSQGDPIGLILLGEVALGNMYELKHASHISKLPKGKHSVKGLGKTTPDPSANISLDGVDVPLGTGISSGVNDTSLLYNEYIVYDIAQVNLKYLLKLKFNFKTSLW
T4 sequence (P11021 19-654 limits assumed): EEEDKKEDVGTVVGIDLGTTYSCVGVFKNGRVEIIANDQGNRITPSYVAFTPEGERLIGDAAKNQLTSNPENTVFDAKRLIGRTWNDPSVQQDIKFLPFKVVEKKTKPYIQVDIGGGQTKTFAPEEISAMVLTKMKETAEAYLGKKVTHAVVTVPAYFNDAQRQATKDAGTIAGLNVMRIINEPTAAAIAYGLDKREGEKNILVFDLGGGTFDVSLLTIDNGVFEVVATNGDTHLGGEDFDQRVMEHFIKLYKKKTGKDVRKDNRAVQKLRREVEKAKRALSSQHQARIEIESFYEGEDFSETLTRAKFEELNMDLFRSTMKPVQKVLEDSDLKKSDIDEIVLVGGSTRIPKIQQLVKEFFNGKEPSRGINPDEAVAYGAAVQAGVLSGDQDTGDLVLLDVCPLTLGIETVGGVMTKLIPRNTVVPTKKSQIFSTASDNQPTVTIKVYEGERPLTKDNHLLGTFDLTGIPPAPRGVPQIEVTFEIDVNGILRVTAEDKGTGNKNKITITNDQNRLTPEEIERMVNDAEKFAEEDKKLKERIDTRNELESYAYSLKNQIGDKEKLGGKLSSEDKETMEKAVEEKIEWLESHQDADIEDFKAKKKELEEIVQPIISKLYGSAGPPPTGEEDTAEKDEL
T3 sequence (P07237 18-508 limits assumed): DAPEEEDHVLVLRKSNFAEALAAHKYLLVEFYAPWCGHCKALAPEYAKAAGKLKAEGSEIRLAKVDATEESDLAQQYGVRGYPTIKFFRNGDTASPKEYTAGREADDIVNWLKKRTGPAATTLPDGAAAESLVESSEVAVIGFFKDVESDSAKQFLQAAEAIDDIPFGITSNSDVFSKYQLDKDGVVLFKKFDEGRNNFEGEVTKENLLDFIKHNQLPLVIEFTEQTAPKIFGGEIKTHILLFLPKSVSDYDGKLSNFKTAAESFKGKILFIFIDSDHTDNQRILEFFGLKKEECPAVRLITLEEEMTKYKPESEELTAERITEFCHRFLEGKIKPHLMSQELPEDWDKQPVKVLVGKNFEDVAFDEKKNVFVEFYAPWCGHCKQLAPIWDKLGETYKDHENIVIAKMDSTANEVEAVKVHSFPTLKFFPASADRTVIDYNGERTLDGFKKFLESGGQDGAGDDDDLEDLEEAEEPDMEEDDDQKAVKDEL

B1: Flag-tagged SHARPIN (other, human, UniProt Q9H0F6 1-387, looked up)
chain: MAPPAGGAAAAASDLGSAAVLLAVHAAVRPLGAGPDAEAQLRRLQLSADPERPGRFRLELLGAGPGAVNLEWPLESVSYTIRGPTQHELQPPPGGPGTLSLHFLNPQEAQRWAVLVRGATVEGQNGSKSNSPPALGPEACPVSLPSPPEASTLKGPPPEADLPRSPGNLTEREELAGSLARAIAGGDEKGAAQVAAVLAQHRVALSVQLQEACFPPGPIRLQVTLEDAASAASAASSAHVALQVHPHCTVAALQEQVFSELGFPPAVQRWVIGRCLCVPERSLASYGVRQDGDPAFLYLLSAPREAPATGPSPQHPQKMDGELGRLFPPSLGLPPGPQPAASSLPSPLQPSWSCPSCTFINAPDRPGCEMCSTQRPCTWDPLAAAST
notes: also called Flag-SHARPIN; not shown: FLAG tag
binds: all assays above

Source: patent US20230301998A1 (SANFORD BURNHAM PREBYS MEDICAL DISCOVERY INSTITUTE, published 2023)
